The values below come from patent US20230051715A1 (MABWELL THERAPEUTICS, published 2023).

Assay [1] addresses T1, human C1s deletion mutant 3 (NHCΔ33) (human, UniProt P09871 16-404).
T1 construct: C-terminal 6xHis tag; also called human C1s (NHCΔ33); C1s (NHCΔ33)
T1 sequence: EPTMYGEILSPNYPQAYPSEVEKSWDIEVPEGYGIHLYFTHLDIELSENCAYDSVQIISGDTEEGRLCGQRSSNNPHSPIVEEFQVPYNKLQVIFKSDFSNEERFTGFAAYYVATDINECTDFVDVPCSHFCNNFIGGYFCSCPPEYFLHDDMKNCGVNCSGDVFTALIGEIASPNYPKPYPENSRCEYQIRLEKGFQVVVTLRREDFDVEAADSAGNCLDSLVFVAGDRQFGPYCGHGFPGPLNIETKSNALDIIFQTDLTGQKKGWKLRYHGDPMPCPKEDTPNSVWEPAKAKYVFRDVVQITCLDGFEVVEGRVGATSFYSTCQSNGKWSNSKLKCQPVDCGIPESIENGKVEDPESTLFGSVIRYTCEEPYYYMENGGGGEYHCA
As to the kind of experiment: ELISA, C1s fragment coated on plate; hz2-8(H1L2 G80A/T82A), second of the two values. Here is the method: ELISA was carried out by first coating 96-well plates with 200 ng/well of full-length or truncated C1s proteins overnight. The next morning, plates were blocked with SuperBlock T20 blocking buffer (Thermo Scientific 37536) for 1 h with gentle shaking. Then, various concentrations of anti-C1s antibodies diluted in SuperBlock T20 blocking buffer were added to the plates and incubated for 1 h with gentle shaking. Mouse IgG (Sigma-Aldrich 15381) and human IgG1 (BioXCell BP0297) were used as negative controls. The plates were washed before incubating with HRP conjugated secondary antibodies diluted in SuperBlock T20 blocking buffer (goat anti-mouse IgG (H+L) cross-adsorbed secondary antibody HRP (Invitrogen G-21040) or goat anti-human IgG antibody, HRP conjugate (Millipore AP309P)) for 1 h with gentle shaking. At last, the plates were washed and color developed with ELISA liquid HRP substrate (Sigma-Aldrich), followed by stopping the reaction with addition of 1M H₂SO₄ in the same volume as the ELISA liquid substrate. Bound antibody was measured by absorbance at OD₄₅₀ₙₘ.
Binding of various anti-C1s antibodies to human C1s (NHCΔ33) (SEQ ID NO: 111) was carried out by ELISA as described in Example 4, and results are shown in FIG. 6A.
A general note: In an ELISA, binding on a coated surface is turned into a signal by an enzyme label.

Assay [2] addresses T2, full-length human C1s (produced in house) (human, UniProt P09871 16-688).
T2 construct: Called full-length; Partly auto-cleaved at R422-I423 on blots; also called HuC1s; Hu C1s
T2 sequence: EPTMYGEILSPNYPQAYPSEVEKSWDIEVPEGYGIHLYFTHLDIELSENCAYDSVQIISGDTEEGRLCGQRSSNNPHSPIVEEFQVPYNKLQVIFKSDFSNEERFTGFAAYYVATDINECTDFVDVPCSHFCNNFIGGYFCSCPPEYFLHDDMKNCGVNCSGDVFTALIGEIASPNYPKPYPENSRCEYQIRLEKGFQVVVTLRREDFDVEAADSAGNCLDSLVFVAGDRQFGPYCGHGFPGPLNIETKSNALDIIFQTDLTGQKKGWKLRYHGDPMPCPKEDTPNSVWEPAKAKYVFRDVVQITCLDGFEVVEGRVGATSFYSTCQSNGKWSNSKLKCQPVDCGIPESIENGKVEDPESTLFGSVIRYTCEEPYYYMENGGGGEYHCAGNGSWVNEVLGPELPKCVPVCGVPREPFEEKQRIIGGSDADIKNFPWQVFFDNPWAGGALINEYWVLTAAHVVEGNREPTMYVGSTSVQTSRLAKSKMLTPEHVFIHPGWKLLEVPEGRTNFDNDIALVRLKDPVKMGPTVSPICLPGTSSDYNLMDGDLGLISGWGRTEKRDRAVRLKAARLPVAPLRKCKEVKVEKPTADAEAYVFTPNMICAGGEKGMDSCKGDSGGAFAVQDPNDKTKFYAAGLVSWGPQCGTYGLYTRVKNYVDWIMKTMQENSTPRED
The experiment in a line: BLI (Octet RED96e), antibody on AHC biosensor; C1s Species: Human; R^2 0.9997. The text has this: (§1) At last, analyte was dissociated in 1×KB for 360 sec. Data analysis was done using OCTET® Data Analysis HT Software (Sartorius AG).

The target in assay [3] is T2, full-length human C1s (produced in …). As to the kind of experiment: BLI (Octet RED96e), antibody on AHC biosensor; C1s Species: Human; R^2 0.9992.
Description: as §1
(In general: In BLI a coated tip is dipped into the sample, and binding shifts an interference pattern.)

The target in assay [4] is T3, cynomolgus monkey C1s (produced in house) (cynomolgus monkey, UniProt P09871 16-685 (human entry), limits assumed).
T3 construct: also called CyC1s
T3 chain: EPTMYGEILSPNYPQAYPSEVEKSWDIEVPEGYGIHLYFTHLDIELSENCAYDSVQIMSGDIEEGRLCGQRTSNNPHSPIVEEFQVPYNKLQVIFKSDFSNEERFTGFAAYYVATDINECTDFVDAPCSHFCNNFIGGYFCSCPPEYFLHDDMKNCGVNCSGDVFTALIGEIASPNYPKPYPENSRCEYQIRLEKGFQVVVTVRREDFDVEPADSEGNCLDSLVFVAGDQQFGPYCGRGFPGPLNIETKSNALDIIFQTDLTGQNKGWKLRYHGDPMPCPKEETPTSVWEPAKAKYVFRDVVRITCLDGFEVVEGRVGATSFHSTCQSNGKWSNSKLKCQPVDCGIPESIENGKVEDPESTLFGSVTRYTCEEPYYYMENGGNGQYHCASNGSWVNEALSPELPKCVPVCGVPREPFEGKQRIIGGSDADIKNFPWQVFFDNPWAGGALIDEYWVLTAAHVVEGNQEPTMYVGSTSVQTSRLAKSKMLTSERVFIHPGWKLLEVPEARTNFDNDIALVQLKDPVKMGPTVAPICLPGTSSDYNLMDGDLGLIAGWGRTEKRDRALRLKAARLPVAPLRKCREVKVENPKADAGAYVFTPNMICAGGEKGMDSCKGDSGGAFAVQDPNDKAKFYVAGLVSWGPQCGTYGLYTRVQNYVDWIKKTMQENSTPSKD
As to the kind of experiment: BLI (Octet RED96e), antibody on AHC biosensor; C1s Species: Cyno Monkey; R^2 0.9996.
Description: as §1

B1: Anti-C1s antibody hz2-8 (H1L2 G80A/T82A) (antibody, V domains shown)
VH: QVQLVQSGAEVKKPGASVKVSCKASGFNIKEYYMHWVRQAPEQGLEWMGWIDPENADAIYAQKFQGRVTITADTSTNTAYMELSSLRSEDTAVYYCARSRLFFAYWGQGTLVTVSS
VL: DIQMTQSPKSLSASVGDRVTITCRASQDVRTALDWYQQKPGQSPKLLIYSASYRYSGVPSRFSGSGSGTDFTLTISSLQPEDFATYYCQQQYTTPYTFGQGTKLEIKR
notes: Humanized variant with G80A and T82A in HC CDR2 (already in the entry), human IgG1 / kappa
Broadly, the EC50 is the concentration at which the effect is half-maximal. Broadly, the Kd is the constant that tells how readily two partners part at equilibrium. In general, koff refers to a measure of how fast the partners let go of each other. A word on the kon: it is a measure of how fast the partners come together. B1: in assay [1], the midpoint of the response, the EC50, lay at 0.015 µg/mL. Also, in assay [2], the Kd turned out to be 0.7 nM, the koff is 0.0003 s⁻¹ and the kon amounted to 430000 M⁻¹ s⁻¹.

B2: Anti-C1s antibody 2-8 (antibody, V domains shown)
VH: EVQLQQSGAELVRPGALVKLSCKASGFNIKEYYMHWVKQRPEQGLEWIGWIDPENGDTIYDPKFQGKASITADTSSNTAYLQLSSLTSEDTAVYYCARSRLFFAYWGQGTLVTVSA
VL: DIVMTQSHKFMSTSVGDRVSFTCKASQDVRTAVDWYQQKPGQSPKLLIYSASYRYTGVPDRFTGTGSGTDFTFTISSVQAEDLAVYFCQQQYTTPYTFGGGTKLEIKT
notes: the HC/LC entries may hold it too; also called clone 2-8
In assay [3], B2 yielded a Kd of 0.032 nM, a koff of 0.00012 s⁻¹ and a kon of 3.8e+06 M⁻¹ s⁻¹. Besides, in assay [4], the Kd came to 1.1 nM, the koff was 0.00028 s⁻¹ and the on-rate constant (kon) is 260000 M⁻¹ s⁻¹.
